These results are taken from US20230257452A1 (GTINVENT, published 2023).

Read-outs that look alike come from different tables or passages of the source. Where no end group is shown, it is not given here. The star is where a group is joined. Biotin = O=C1N[C@H]2[C@H](CS[C@H]2CCCCC(=O)*)N1

Assay [1] addresses T1, full length human tau protein (2N4R, isoform Tau-F, 441 amino acids) (human, UniProt P10636 1-758).
T1 construct: also called hT40; htau40
The experiment in a line: sandwich ELISA, S1D12 mAb capture, hT40 titrated, detection scAb at 10 ug/ml, colourimetric. The protocol: (§1) Full length tau (hT40), at 1 μg/ml starting concentration was added to designated wells and double diluted across rest of the plates and left to incubate at R/T for 1 h. A series of detection scAbs with varying epitope recognition properties were added at 10 μg/ml to designated wells (FIG. 22). For colourimetric detection HRP conjugated anti-HuCk secondary antibody was used and the resulting immunoreaction was developed and absorbance at 450 nm measured as described previously. Cut-off point for a positive binding event was an absorbance value of 0.3 following background subtraction. In order to enhance the assay sensitivity, a chemiluminescent detection method was adopted where 50 μL SuperSignal ELISA Femto Substrate (Thermo Scientific) was added to each well following incubation with anti-HuCK HRP antibody and subsequent washing. The luminescence was read using Clariostar Plus microplate reader. A further modification to this protocol was done where various detection scAbs were directly conjugated with HRP and detected using chemiluminescent protocol as before.

Assay [2] addresses T2, dGAE (tau 297-391) (human, UniProt P10636 614-708).
T2 construct: also called dGAE95
The experiment in a line: tau-tau immunoassay: scAb preincubated with 100 nM dGAE; blocked ligand: plate-bound dGA (1000 nM); bound dGAE detected with E2E8. The method, then: The adapted method is as follows: dGA (1000 nM) was adsorbed to a Nunc 96-well MaxiSorp plate and incubated for 1 h at 37° C. Plates were subsequently washed 3 times with PBST which was performed after each 1 h incubation. The plates were blocked with 2% (w/v) dried milk powder in PBS for 1 h at 37° C. […] The secondary antibody used was HRP-conjugated Anti-mouse IgG (1:1000 dilution, Sigma) and incubated at RT for 1 h. The plate was subsequently developed, and readings taken at absorbance 450 nm.

For assay [3], the target named is T1, full length human tau protein (2N4R, …). Nature of the assay: sandwich ELISA, S1D12 mAb capture, hT40 titrated, detection scAb, chemiluminescent. The method, then:
as §1
For orientation: ELISA stands for enzyme-linked immunosorbent assay.

Another assay has as its target T3, dGAE aggregates (human, UniProt P10636 614-708, limits assumed).
T3 construct: 100 µM dGAE aggregated with DTT at 37 °C, 700 rpm, 24 h; also called aggregated dGAE
The experiment in a line: capture ELISA, mAb coated at 1 ug/ml, dGAE aggregates titrated, S1G2 scAb detection.

Assay [4] deals with T1, full length human tau protein (2N4R, …). Nature of the assay: ELISA, hT40 coated, scAb titrated.
Assay [5] has as its target T2, dGAE (tau 297-391). The experiment in a line: ELISA, antigen coated, scAb titrated. The source says:
(§2) The plates were blocked with 2% MPBS and scAb samples added at desired starting concentrations and double diluted across the plate. Binding was detected using anti-Human C Kappa HRP conjugated secondary antibody and the resulting immunoreaction was developed and absorbance values measured as described above.

The target in a further assay is Tau 337-368 (human). The experiment in a line: ELISA, antigen coated, scAb titrated; panel title 337-368.
Description: as §2

Assay [6] concerns the target T1, full length human tau protein (2N4R, …). Nature of the assay: ELISA, hT40 coated, scAb titrated. The source holds these as a separate data set.
Assay [7] concerns the target T4, N biotin 341-353 tau peptide (human).
T4 peptide: Biotin-SEKLDFKDRVQSK
The experiment in a line: ELISA, biotinylated peptide on streptavidin, scAb titrated [B]. The method, then:
Briefly, 5 μg/ml streptavidin (Thermo Fisher) was adsorbed to Nunc 96-well MaxiSorp plates and following incubation at 37° C. for 1 h, the plates were washed as normal and blocked with 2% MPBS. […] Subsequently, test scAbs at starting concentrations of 100-500 nM was added and double diluted across the plate for each peptide and incubated for 1 h at 37° C. Rest of the ELISA was conducted as described above and the plates were read at absorbance 450 nm. Immunoreactivity of the scAb of interest was quantified as the % of scAb was bound for each peptide at a chosen concentration (FIG. 15-20).

Assay [8] deals with T1, full length human tau protein (2N4R, …). The experiment in a line: ELISA.
Description: as §2

The next assay addresses Tau 1-319 (human, UniProt P10636 1-636). The experiment in a line: ELISA.
Description: as §2

T2 sequence (P10636 614-708 limits assumed): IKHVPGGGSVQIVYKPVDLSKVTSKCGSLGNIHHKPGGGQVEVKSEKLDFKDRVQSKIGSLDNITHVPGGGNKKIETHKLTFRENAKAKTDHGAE
T1 sequence (P10636 other isoform, or with tags, fused parts or gaps limits assumed): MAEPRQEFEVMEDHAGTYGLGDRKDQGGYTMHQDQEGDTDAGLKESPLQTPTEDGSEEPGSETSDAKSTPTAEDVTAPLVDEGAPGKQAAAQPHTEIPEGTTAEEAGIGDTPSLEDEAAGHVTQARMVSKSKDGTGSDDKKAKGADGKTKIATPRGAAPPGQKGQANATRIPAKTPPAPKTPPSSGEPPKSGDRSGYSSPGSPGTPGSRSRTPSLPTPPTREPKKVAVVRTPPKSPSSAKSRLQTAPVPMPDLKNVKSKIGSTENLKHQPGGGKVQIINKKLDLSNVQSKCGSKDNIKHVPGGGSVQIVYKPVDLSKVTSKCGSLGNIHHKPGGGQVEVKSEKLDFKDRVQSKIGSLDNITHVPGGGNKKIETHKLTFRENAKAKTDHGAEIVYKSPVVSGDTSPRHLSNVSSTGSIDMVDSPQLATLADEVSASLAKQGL
Chain of Tau 1-319 (P10636 other isoform, or with tags, fused parts or gaps): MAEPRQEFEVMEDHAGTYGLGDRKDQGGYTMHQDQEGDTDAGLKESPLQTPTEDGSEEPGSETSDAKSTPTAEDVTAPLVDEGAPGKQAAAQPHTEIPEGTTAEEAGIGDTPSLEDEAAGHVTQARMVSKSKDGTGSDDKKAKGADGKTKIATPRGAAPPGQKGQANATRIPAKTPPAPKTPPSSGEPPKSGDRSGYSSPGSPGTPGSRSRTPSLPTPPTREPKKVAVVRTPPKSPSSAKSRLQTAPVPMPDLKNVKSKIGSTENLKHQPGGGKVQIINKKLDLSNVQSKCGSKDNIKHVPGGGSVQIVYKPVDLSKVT
Chain of Tau 337-368 (human) (chain, as listed by the source): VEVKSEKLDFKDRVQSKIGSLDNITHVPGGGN
T3 sequence (P10636 614-708 limits assumed): as the sequence (P10636 614-708 limits assumed) above

B1: CA4 scAb (scFv)
scFv: QVQLQESGPSLVKPSQTLSLTCTVSGFSLTSYSVYWVRQAPGQALEWISIMYASGRVDYNPALKSRLSITRDTSKSQFSLSLSSVTTEDTAVYYCTRGIENWGPGLLVTVSSEGKSSGASGESKVDDDIQVTQSPSSLSASLTERVSITCRTSQSVNNYLSWYQQKPGQAPKLLIYYATRLYTDVPSRFSGSGSGTDYTLTITSLEADDTATYYCLQYDSTPLAFGGGTNVEIK
notes: not shown: human C kappa domain and hexa-His tag of the scAb format
Take B1: in [1], the “LoD (ng/ml) colourimetric detection” value stood at 6 ng/mL. Moreover, the B50 with dGAE (tau 297-391) [2] turned out to be 221 nM. In addition, in assay [3], the “LoD (ng/ml) chemiluminescence detection” value was determined as 0.37 ng/mL.

B2: E2E8 mAb (antibody, mouse IgG2a, V domains shown)
VH: QVQLQESGPSLVKPSQTLSLTCTVSGFSLTDRGVAWVRQAPGKALEWVGTMRSGGTIDYNPALKSRLSITRDTSKSQVFLSLSSVTTEDMAMYYCARGYLSGDRYAWGRGLLVTVSS
VL: QAVLTQPSSVSKSLGQSVSIACSGSRSDIGYGNYVSWFQQIPGSAPKLLIYDTNTRASGVPDRFSGARSGNTATLTINSLQAEDEADYYCANIDSSRSHLFGSGTRLTVLG
notes: sheep-mouse (IgG2a) chimeric mAb
In the case of B2, the binding result with dGAE aggregates is given as “binds”.

B3: 412E10 scAb (scFv)
scFv: QVQLQESGPSLVKPSQTLSLTCTVSGFSVISDSVAWVRQAPGKVPEWLGASGSSGNKYYNPALKSRLSITRDTSKSQVSLSLSSVTTEDTAVYYCARGIIAGVDVWGRGLLVTVSSEGKSSGASGESKVDDQAVLTQPSSVSGSLGQRVSITCSGSSSNVGYGNYVGWYQQVPGSAPKLLIYGTAIRASGVPDRFSGSRSGDTATLTITSLQAEDEADYYCASYQSNYAFFGSGTRLTVLG
notes: as for B1
As for B3, in assay [1], the “LoD (ng/ml) colourimetric detection” value was determined as 20 ng/mL. Moreover, the “LoD (ng/ml) chemiluminescence detection” value in [3] was 0.37 ng/mL.

B4: CC7 scAb (scFv)
scFv: QVQLQESGPSLVKPSQTLSLTCTVSGFSLTSNAVIWVRQAPGKAPEWVALIDVDGDAAYDPALKSRLSITRDTSKSQVSLSLRSVTTEDTAVYYCARDYGSWGYVSDIDYWGPGLLVTVSSEGKSSGASGESKVDDRVVRTQPSSVSGSLGQRVSITCSGSYITGSSVGWFQQVPGSGLKTVIYDNNDRPSGVPDRFSGSKSGDTATLTISSLQAEDEADYYCASYDTSNIGLFGSGTRLTVLG
notes: as for B1
As for B4, in assay [1], the “LoD (ng/ml) colourimetric detection” value came out at 6 ng/mL. Moreover, the “LoD (ng/ml) chemiluminescence detection” value in assay [3] is 3.33 ng/mL.

B5: CB7 scAb (scFv)
scFv: QVQLQESGPSLVKPSQTLSLTCTVSGFSLTNYRVGWVRQAPGKALEWVSNIRSGGTTWYNPALKSRLSITADTSKSQVSLSLSSVTTEDTAVYYCARDSSGDLYAYDYWGPGLLVTVSSEGKSSGASGESKVDDQAVLTQPSSVSRSLGQSVSMTCSGSSSNVGYGNYMAWFQQVPGSAPKLLIYGATSRASGVPDRFSGSRSGNTATLTISSLQAEDEADYYCASYDSTSGGVFGSGTRLTVLG
notes: as for B1
Consider B5, for which the “LoD (ng/ml) colourimetric detection” value in assay [1] amounted to 15 ng/mL. In assay [3], the “LoD (ng/ml) chemiluminescence detection” value amounted to 3.33 ng/mL.

B6: S1G10 scAb (scFv)
scFv: QVQLQESGPSLVKPSQTLSLTCTVSGFSLTSNSVGWVRQAPGKAPEWVAGIDTDGEEGYNPALNSRLSITRDTSKSQVSLSLSSVTSEDTAVYYCGRSYRADGLAYGYVQAIDYWGPGLLVTVSSEGKSSGASGESKVDDQAVLTQPSSMSGSLGQRVSITCSGSFIGISSVGWFQQLPGSGLRTIIVASDGRPSGVPDRFSMSKSGNTATLTISSLQAEDEADYFCGSSDRTQYTGVFGSGTRLTVLG
notes: as for B1
Consider B6, for which the “LoD (ng/ml) colourimetric detection” value in [1] was determined as 2 ng/mL. In addition, the B50 with dGAE (tau 297-391) [2] came out at 207 nM. Moreover, in [3], the “LoD (ng/ml) chemiluminescence detection” value is 0.12 ng/mL.

B7: S1F4 scAb (scFv)
scFv: QVQLQESGPSLVKPSQTLSLTCTVSGFSLSSNSVGWVRQAPGKAPEWVAGIDTDGEEGYNPALNSRLSITRDTSKSQVSLSLSSVTSEDTAVYYCVRSYRADGLAYGYVQAIDYWGPGLLLTISSEGKSSGASGESKVDDQAVVTQPSSVSGSLGQRVSITCSGSFIGISSVGWFQQLPGSGLRTVIVASDGRPSGVPDRFSNSKSGNTATLTISSLQAEDEADYFCGSSDRTQYTGVFGSGTRLTVLG
notes: as for B1
In general, EC50 (read off the curve) refers to the midpoint of the concentration-response curve. A low value points to greater potency. Consider B7, for which, in assay [4], the “EC50 (read off the curve)” value is ~0.05 µg/mL.

B8: E2B7 scAb (scFv)
scFv: QVQLQESGPSLVKPSQTLSLTCTVSGFSLTSWGVAWVRQAPGKALEWLGTMRSGGGTEYNPALKSRLSITRDTSKSQVSLSLSSVTTEDMAMYYCARGYLSGIHYAWGRGLLVSVSSEGKSSGASGESKVDDQAVLTQLSSVSGSLGQRVSITCSGSSSNVGDGDYVGWFQQLPGSAPKLLIYSARNRASGVPDRFSGSRSGNTATLTITSLQAEDEADYYCASIDTSRSHIFGSGTRLTVLG
notes: as for B1
B8: the binding result in the assay with dGAE (tau 297-391) [5] was “binds”.

B9: S1D12 scAb (scFv)
scFv: QVQLQESGPSLVKPSQTLSLTCTVSGFSLNNNAVGWVRQAPGKVPESLVGCSSDGTCYYNSALKSRLDITRDTSKNQISLSLSSVTTDDAAVYYCTRGHYSIYGYDYLGTIDYWGPGLLVTVSSEGKSSGASGESKVDDQAVLTQPSSVSGSLGQRVSITCSGSSSNVGGGNSVGWYQHLPGSGLKTIIYDTNSRPSGVPDRFSGSRSGNTATLTINSLQAEDEGDYYCVTGDSTTHDDLVGSGTRLTVLG
notes: as for B1
Regarding B9, the binding result (in the assay with Tau 337-368; in assay [7]) was “binds” each time. In the assay with dGAE (tau 297-391) [2], this molecule had a B50 of 80 nM. Further, the “EC50 (read off the curve)” value in assay [6] is ~0.9 µg/mL.

B10: CA7 scAb (scFv, V domains shown)
VH: RVRLQGSGPSLVKPSQTLSLTCTVSGFSFDSYYVGWVRQAPGKALEWLGNIYSTGRAFYNPALKSRLSITRDTSKSQVSLSVSSVTIEDTALYYCVRGSYYHGGGNGMVDFFDYWSPGLLVTVSS
VL: QVVRTQPSSVSGSLGQRVSITCSGSSSNVGYGNYVGWFQQVPGSAPKLLIYAATSRASGVPDRFSGSRSGNTATLTIDSLQAEDEADYYCSSYQRGNTGVFGSGTRLTVLG
notes: tested as scAb (VH-linker-VL-HuCk-His in one chain)
Regarding B10, the binding result (in [8]; with Tau 1-319) was “binds” in each case.

B11: CA12 scAb (scFv)
scFv: QVQLQGSGPSLVKPSQTLSLTCTVSGFSFDSYYVGWVRQAPGKALEWLGNIYSTGRAFYNPALKSRLSITRDTSKSQVSLSVSSVTIEDTALYYCVRGSYYHGGGNGMVDFFDYWSPGLLVTVSSEGKSSGASGESKVDDQVVRTQPSSVSGSLGQRVSITCSGSSSNVGYGNYVGWFQQVPGSAPKLLIYAATSRASGVPDRFSGSRSGNTATLTIDSLQAEDEADYYCSSYQRGNTGVFGSGTRLTVLG
notes: as for B1
With B11, the “EC50 (read off the curve)” value in assay [4] is ~0.02 µg/mL. The molecule further had a B50 in the assay with dGAE (tau 297-391) [2] of 59 nM.
